The data set can be described thus: protein stability index of a GFP-peptide fusion (GPS, HEK-293T) (PSI 1-6); higher = more stable.
The mark [1] stands for this setting: treatment: DMSO, c terminus: a fixed tail appended.
The mark [2] stands for this setting: treatment: MLN4924 1 uM, 8 h, c terminus: a fixed tail appended.

The values that follow come from the supplement of paper PMC10567573.

± gives the standard deviation.
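Note: 24-mer peptide tiles fused after GFP, lentivirally expressed, FACS-sorted into six equal bins by GFP/DsRed ratio, decoded by Illumina sequencing, PSI is the read-weighted mean bin number.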

For SLLVHGFKPACMSEIKNLERYMCS [TENT5D], the protein stability index under setting [1] came out at 2.48 ± 0.41 and the protein stability index under setting [2] is 2.41 ± 0.29.
The corresponding values for SLSDQMSVLQSVWMEVLVLGVAQR [ESRRA] are 3.33 ± 0.35 and 2.98 ± 0.46.
SLSPSPLGSSAASTALERPSFLSQ [FCHO1] registered a protein stability index under setting [1] of 4.09 ± 0.25 and a protein stability index under setting [2] of 3.98 ± 0.19.
SLVQLQASHQQQVLPPRQPSALVP [MYBL2]: the protein stability index stood at 3.54 ± 0.23 under setting [1] and 3.63 ± 0.28 under setting [2].
Consider SMENANQENEEKEQVANKGEPLAL [BEX1], for which the protein stability index came out at 5 ± 0.26 under setting [1] and 5.11 ± 0.22 under setting [2].
SMQEDEQSGRDLQQYQSQAKQLFR [SEC22B]: the protein stability index by setting is: under setting [1], 4.22 ± 0.17; under setting [2], 4.35 ± 0.19.
The sequence SNFEQTQIQEFKEAFTLMDQNRDG [MYL5] yielded a protein stability index under setting [1] of 5.11 ± 0.2 and a protein stability index under setting [2] of 4.93 ± 0.33.
Regarding SNLSTRDASILTEMPTQPGKPLIP [NETO1], the protein stability index amounted to 4.52 ± 0.18 under setting [1] and 4.57 ± 0.26 under setting [2].
For the sequence SPAKASQASKLRASKEEKEDWLSH [FBF1], the protein stability index by setting is: under setting [1], 4.92 ± 0.37; under setting [2], 4.92 ± 0.3.
With SPNFGFMGQLLQYESEILPSTPNP [DUSP5], the protein stability index under setting [1] stood at 3.59 ± 0.092 and the protein stability index under setting [2] came to 3.45 ± 0.48.
Turning to SPSKSFWTRITCAEEGWSPTPKCL [CFHR2], the protein stability index by setting is: under setting [1], 2.17 ± 0.22; under setting [2], 2.47 ± 0.33.
For the sequence SPVTRTRSLSACNKRVGMYLEGFD [DLC1], the protein stability index came to 3 ± 0.3 under setting [1] and 3.19 ± 0.3 under setting [2].
SQAPVNKPKKKKEKKEKEKKKKDK [BRD3]: the protein stability index by setting is: under setting [1], 5.32 ± 0.32; under setting [2], 5.3 ± 0.32.
For SQNIQEDDLQQLQLFTEYGRLAMD [ATL3], the protein stability index runs as follows: under setting [1], 4.3 ± 0.27; under setting [2], 4.09 ± 0.47.
Take SQRAMLLQGTESLNRATQSIERSH [VTI1B]: the protein stability index is 4.27 ± 0.13 under setting [1] and 4.35 ± 0.21 under setting [2].
As for SQVRALDRFQVPTTEVNAWLVHRD [NFE2L1], the protein stability index reads like this: under setting [1], 3.37 ± 0.47; under setting [2], 3.33 ± 0.48.
The corresponding values for SSAASLIDFLRVVRNQQSLAVSNM [PTPN9] are 2.26 ± 0.43 and 2.1 ± 0.26.
The like results for SSDESPGSKCSPEDLATAYNNRGQ [TTC32] were, in that order, 5.28 ± 0.18 and 5.44 ± 0.12.
With SSEKLNLQKDLETRPTQHELRLYK [CEP70], the protein stability index came to 4.12 ± 0.16 under setting [1] and 4.1 ± 0.36 under setting [2].
Take SSNVSLSLFVLDQNDNAPEILYPA [PCDHGA10]: the protein stability index runs as follows: under setting [1], 2.48 ± 0.13; under setting [2], 2.38 ± 0.29.
In the case of SSNYFSPRESTDFSSSSQEAFAAS [ZBTB22], the protein stability index runs as follows: under setting [1], 4.41 ± 0.17; under setting [2], 4.41 ± 0.15.
On to SSTCGQLASYPLALVRTRMQAQAS [SLC25A25], for which the protein stability index under setting [1] came out at 2.74 ± 0.23 and the protein stability index under setting [2] is 3 ± 0.1.
The corresponding values for SSYSLSDMVSNIELPTRIHEEVYF [MIA2] are 2.35 ± 0.39 and 2.5 ± 0.6.
For STSLPDPGDFDRNVPRICGVCGDR [VDR], the protein stability index came to 4.6 ± 0.2 under setting [1] and 4.56 ± 0.55 under setting [2].
Take STTALGDKQRKANESKGTRESWDS [ELOA2]: the protein stability index runs as follows: under setting [1], 4.06 ± 0.49; under setting [2], 4.34 ± 0.72.
On to SVDIWAIGCVFAELLTGQPLWPGK [CDKL4], for which the protein stability index was found to be 2.6 ± 1.3 under setting [1] and 3.02 ± 0.97 under setting [2].
Regarding SVGCIFAEMFRRKPLFCGNSEADQ [CDK4], the protein stability index is, setting by setting: under setting [1], 2.37 ± 0.2; under setting [2], 2.58 ± 0.23.
Consider SVGHNNLIPLANTGIVNHTHSRMG [CARM1], for which the protein stability index is, setting by setting: under setting [1], 3.47 ± 0.32; under setting [2], 3.66 ± 0.2.
For SVNEHTEEGESLLCLACSAGYYEL [ANKRD17], the protein stability index reads like this: under setting [1], 2.64 ± 0.38; under setting [2], 2.93 ± 0.29.
The like results for SVPLAYFLLSQQTDLPECEQSSAR [TCF25] were, in that order, 3.07 ± 0.25 and 2.89 ± 0.5.
The corresponding values for SVSLQINCQSVAQMNLLQKYSLLK [DLC1] are 2.2 ± 0.12 and 2.13 ± 0.22.
In the case of SWEGLAVLDSLLLTLLPQLQEAWQ [RSAD1], the protein stability index is, setting by setting: under setting [1], 3.27 ± 0.35; under setting [2], 3.22 ± 0.52.
For the sequence SWNSQSSLLDVQRVPSFESFEDDC [ETS2], the protein stability index came to 4.84 ± 0.17 under setting [1] and 4.67 ± 0.13 under setting [2].
The corresponding values for SYKIEEISPSTLKNSLFPSPISSI [KCNK9] are 2.6 ± 0.21 and 2.7 ± 0.33.
Consider SYRIHNGQKLVVPGLLGSMALSNH [FBXO3], for which the protein stability index worked out at 2.35 ± 0.27 under setting [1] and 2.43 ± 0.31 under setting [2].
The corresponding values for SYSQSSNLFRHQRRHNAEKLLNVV [ZNF24] are 2.58 ± 0.27 and 2.97 ± 0.41.
Consider SYSREHEGRLRYPSRREPPPRRSR [CLK3], for which the protein stability index reads like this: under setting [1], 5.28 ± 0.2; under setting [2], 5.01 ± 0.48.
The corresponding values for TAERITQLSAPHCKKLSLELGGKN [ALDH8A1] are 3.75 ± 0.21 and 3.98 ± 0.19.
TCCYFKFIIEYYNIRPADSRWVRD [FBXO34] returned a protein stability index under setting [1] of 2.84 ± 1.2 and a protein stability index under setting [2] of 2.29 ± 0.54.
On to TCFVRDGKTYCKRDYVRLFGIKCA [ISL2], for which the protein stability index reads like this: under setting [1], 2.46 ± 0.18; under setting [2], 2.17 ± 0.19.
For TDFFKNIMNFIDIVAIIPYFITLG [KCNA1], the protein stability index runs as follows: under setting [1], 3.22 ± 0.62; under setting [2], 3.6 ± 0.2.
The corresponding values for TDPGDVPAFLKWLSLASLLVYVAA [SLC2A12] are 2.37 ± 0.39 and 2.66 ± 1.
The like results for THLEAQNRIKGCHDHLTLSVSRPE [PDLIM4] were, in that order, 3.57 ± 0.18 and 3.66 ± 0.23.
The like results for TINPSKRITAAEALKHPWISHRST [CAMK2A] were, in that order, 3.06 ± 0.23 and 3.21 ± 0.2.
The sequence TKCRKRKLERIARLEDKVKTLKAE [JUNB] displayed a protein stability index under setting [1] of 4.28 ± 0.23 and a protein stability index under setting [2] of 4.42 ± 0.29.
As for TKSHSFRAMCQNGKLVYPSCEEK [CFHR2], the protein stability index runs as follows: (treatment: DMSO, c terminus: native) 3.813 ± 0.01; (treatment: MLN4924 1 uM, 8 h, c terminus: native) 4.09 ± 0.12.
Consider TLCAVLERDTLSIRESRLFGAVVR [BTBD1], for which the protein stability index is 2.4 ± 0.38 under setting [1] and 2.22 ± 0.56 under setting [2].
The sequence TLCQFPETLLGDPKRRMRYFDPLR [KCNA3] registered a protein stability index under setting [1] of 2.26 ± 0.14 and a protein stability index under setting [2] of 2.5 ± 0.34.
With TPNASSPGNPTALANGTVQAPKQK [LPCAT4], the protein stability index by setting is: under setting [1], 5.31 ± 0.13; under setting [2], 5.43 ± 0.15.
For the sequence TPNSAGGPGAHILRRKSPASGQGP [ADAMTS4], the protein stability index was 4.55 ± 0.15 under setting [1] and 4.93 ± 0.28 under setting [2].
Turning to TPTPVAAALDACSGNDPFAPSEGS [SNAP91], the protein stability index runs as follows: under setting [1], 5.29 ± 0.32; under setting [2], 5.47 ± 0.24.
TQGQEKMMMMGPKEEEQSCEYETR [ZNF232]: the protein stability index reads like this: under setting [1], 5.42 ± 0.38; under setting [2], 5.59 ± 0.16.
TQKLSHSTKPSGSPLEEKHDQCKC [MATN2]: the protein stability index runs as follows: under setting [1], 5.15 ± 0.38; under setting [2], 4.94 ± 0.29.
On to TQLTQNAVSCPYLPSNLLKKFRSS [KCNA4], for which the protein stability index reads like this: under setting [1], 3.32 ± 0.37; under setting [2], 3.39 ± 0.2.
The like results for TREQLYQAIFHAVDQYLALPDVSL [MCOLN1] were, in that order, 3.37 ± 0.54 and 2.67 ± 0.61.
The like results for TRRSCIDESQISAEEAEDHGRIPD [FAM189A2] were, in that order, 5.5 ± 0.33 and 5.49 ± 0.15.
Turning to TRSCSSASSRSQQSSKRSSRSVED [CLK3], the protein stability index reads like this: under setting [1], 5.047 ± 0.044; under setting [2], 5.02 ± 0.22.
Turning to TRWCHIVRDSDSLAESEFESAAFS [PHTF1], the protein stability index reads like this: under setting [1], 3.45 ± 0.054; under setting [2], 3.33 ± 0.29.
TSENLKLVHIVCHKKTTHKLNCDP [DFFB]: the protein stability index runs as follows: under setting [1], 2.81 ± 0.19; under setting [2], 2.97 ± 0.21.
On to TSIGMPSLMYRSPPGAEEPQAPPA [RETREG3], for which the protein stability index reads like this: under setting [1], 5.12 ± 0.12; under setting [2], 4.92 ± 0.07.
With TSQGQVRMRLFGQRCQKCSWSQYE [RTP4], the protein stability index under setting [1] worked out at 2.4 ± 0.37 and the protein stability index under setting [2] came out at 2.01 ± 0.39.
On to TSRRSGVGLAVVNGQLMAVGGFDG [KLHL20], for which the protein stability index worked out at 2.99 ± 0.23 under setting [1] and 2.94 ± 0.41 under setting [2].
For TSSNLGSQYQCENGVSGPSQDLLP [TBX5], the protein stability index is, setting by setting: under setting [1], 4.78 ± 0.16; under setting [2], 4.6 ± 0.15.
In turn, TSSTFGLQDGNLRAPHKESTLPRS [CHCHD6] had a protein stability index under setting [1] of 4.42 ± 0.34 and a protein stability index under setting [2] of 4.61 ± 0.14.
Turning to TSTPPPASVINNMLAEIFCQTGGV [ZBED1], the protein stability index by setting is: under setting [1], 2.84 ± 0.076; under setting [2], 2.73 ± 0.23.
For TTARERPCVRPGVSGSPVTQNHAA [FBF1], the protein stability index turned out to be 4.33 ± 0.23 under setting [1] and 4.51 ± 0.3 under setting [2].
As to TTEVNAWLVHRDPEGSVSGSQPNS [NFE2L1], the protein stability index worked out at 4.33 ± 0.17 under setting [1] and 4.64 ± 0.35 under setting [2].
For TTLDEFPLTRLGQLKACTNFDDIL [KCNG1], the protein stability index under setting [1] worked out at 2.99 ± 0.26 and the protein stability index under setting [2] was determined as 2.92 ± 0.22.
Take TTTHAPPGVHRRYSALREESAKDW [PPFIA4]: the protein stability index was determined as 4.23 ± 0.3 under setting [1] and 4.47 ± 0.15 under setting [2].
Turning to TVDIQNPDITSSRYRGLPAPGPSP [WAS], the protein stability index is 4.49 ± 0.24 under setting [1] and 4.7 ± 0.18 under setting [2].
As for TVNVQRTGQPLPQSIQQAMRYLRN [DLC1], the protein stability index is, setting by setting: under setting [1], 3.17 ± 0.18; under setting [2], 3.33 ± 0.23.
In the case of TVVSVRGFEESEPLTGFLTTVPDG [TNXB], the protein stability index was 3.92 ± 0.25 under setting [1] and 3.78 ± 0.41 under setting [2].
